Reference: patent US6468985B1, “Retinoblastoma protein-interacting zinc finger proteins” (The Burnham Institute, priority 1994, dated 2002)

Key:
RIZ = biological target: T1, RIZ (Rattus norvegicus, UniProt Q63755); assay: binding of anti-RIZ antiserum / anti-ce1 antibody to RIZ and RIZ truncation mutants; conditions: addition of the immunogen
T1 construct: made in house; host or cells: in vitro transcription/translation (rabbit reticulocyte lysate)
T1 sequence (Q63755 245-883): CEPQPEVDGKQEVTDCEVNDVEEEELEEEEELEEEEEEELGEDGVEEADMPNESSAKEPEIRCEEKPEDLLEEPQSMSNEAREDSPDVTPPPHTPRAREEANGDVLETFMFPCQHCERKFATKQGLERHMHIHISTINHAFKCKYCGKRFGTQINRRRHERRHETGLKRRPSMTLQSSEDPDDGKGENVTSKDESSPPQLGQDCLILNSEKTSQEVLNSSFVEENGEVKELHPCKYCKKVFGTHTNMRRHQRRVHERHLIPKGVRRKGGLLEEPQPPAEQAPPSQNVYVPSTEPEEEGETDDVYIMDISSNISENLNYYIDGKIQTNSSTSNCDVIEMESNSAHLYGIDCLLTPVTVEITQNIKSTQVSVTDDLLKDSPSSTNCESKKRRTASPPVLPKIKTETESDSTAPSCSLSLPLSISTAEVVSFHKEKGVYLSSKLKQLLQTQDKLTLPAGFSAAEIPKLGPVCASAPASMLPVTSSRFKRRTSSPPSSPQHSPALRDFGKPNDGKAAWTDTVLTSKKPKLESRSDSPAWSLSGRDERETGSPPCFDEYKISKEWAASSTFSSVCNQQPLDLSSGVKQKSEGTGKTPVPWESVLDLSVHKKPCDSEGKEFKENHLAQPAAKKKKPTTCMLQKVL
Protocol: Anti-RIZ antibodies purified from the E1A affinity column were tested for binding to RIZ and E1A. […] The E1A-affinity purified RIZ antibodies were designated “anti-ce1” for cross reacting E1A antigen.
Anti-ce1 antibodies were tested for binding to various deletion mutants of RIZ and E1A 12S in order to map the location of the ce1 epitope on each molecule.
To evaluate this possibility, an 11 amino acid peptide encompassing residues 310-320 in RIZ (ce1 peptide) [sequence] (SEQ ID NO: 7) and an overlapping 11 amino acid control peptide encompassing residues 304-314 containing the cr2 core motif of RIZ, peptide [sequence] (SEQ ID NO: 6), were synthesized by solid phase peptide synthesis and tested for their ability to block binding between anti-ce1 antibody and RIZ or E1A.

B3 mutant of Rb = biological target: T2, B3 mutant of Rb (Homo sapiens, UniProt P06400); assay: binding of GST-RIZ (245-573) to 35S-labeled Rb mutant, immunoprecipitation with anti-RIZ antiserum; conditions: deletion C-terminal to the Rb binding pocket
T2 construct: made in house; host or cells: in vitro transcription/translation
T2 sequence (P06400 1-803): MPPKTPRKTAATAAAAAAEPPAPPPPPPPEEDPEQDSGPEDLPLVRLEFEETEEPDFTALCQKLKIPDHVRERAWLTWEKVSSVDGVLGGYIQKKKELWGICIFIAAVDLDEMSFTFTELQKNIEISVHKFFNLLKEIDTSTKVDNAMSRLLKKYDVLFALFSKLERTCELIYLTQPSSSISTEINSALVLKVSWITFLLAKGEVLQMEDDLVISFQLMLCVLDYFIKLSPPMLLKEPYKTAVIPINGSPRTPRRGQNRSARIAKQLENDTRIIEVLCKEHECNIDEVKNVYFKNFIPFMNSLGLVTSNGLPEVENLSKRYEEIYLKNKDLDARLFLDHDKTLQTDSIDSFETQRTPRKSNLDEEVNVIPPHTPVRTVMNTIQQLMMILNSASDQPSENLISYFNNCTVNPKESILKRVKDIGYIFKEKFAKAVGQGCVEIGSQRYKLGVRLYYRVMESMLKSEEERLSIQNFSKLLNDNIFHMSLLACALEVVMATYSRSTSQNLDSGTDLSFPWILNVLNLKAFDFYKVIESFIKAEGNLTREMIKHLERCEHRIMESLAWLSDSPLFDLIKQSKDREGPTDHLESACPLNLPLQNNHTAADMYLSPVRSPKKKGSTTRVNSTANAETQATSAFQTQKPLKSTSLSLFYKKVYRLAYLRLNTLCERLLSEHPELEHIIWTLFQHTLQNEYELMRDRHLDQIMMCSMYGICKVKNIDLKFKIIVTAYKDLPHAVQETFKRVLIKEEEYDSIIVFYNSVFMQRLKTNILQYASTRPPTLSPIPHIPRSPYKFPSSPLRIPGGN
Protocol: The 56 kD Rb fragment that binds to RIZ is a C-terminal fragment containing the Rb pocket binding region and a C-terminal extension. To further define the portion of 56 kD Rb that binds to RIZ, several Rb mutant polypeptides were tested for binding to RIZ. Mutant and full length Rb were cloned and in vitro transcribed/translated as described previously (Huang et al., supra, 1990). H209 is a point mutation resulting in a single amino acid change in Rb that was identified in the small cell lung cancer H209 cell line (American Type Culture Collection (ATCC) #HTB 172). The various Rb forms were tested for binding to glutathionine S-transferase (GST) fused to a fragment of RIZ from amino acid position 245-573 (GST-RIZ (245-573)). This RIZ fragment contains all of the E1A motifs related to binding Rb and was constructed by cloning a Stu I-Hpa I RIZ fragment (nucleotide 795-3068) into vector pBSK+ to make pBSK+SH. An Eco RI fragment was removed from pBSK+SH and ligated into pGEX-KG to produce vector pKG7.1S containing GST-RIZ (245-573).
The binding between purified GST-RIZ (245-573) and the above radiolabeled Rb wild-type and deletion mutants was determined by immunoprecipitation with an anti-RIZ antiserum followed by SDS-PAGE and autoradiography. […]

B1: GST-RIZ (245-573): glutathionine S-transferase fused to RIZ fragment a.a. 245-573 containing zinc fingers 1-3 (protein)
chain: CEPQPEVDGKQEVTDCEVNDVEEEELEEEEELEEEEEEELGEDGVEEADMPNESSAKEPEIRCEEKPEDLLEEPQSMSNEAREDSPDVTPPPHTPRAREEANGDVLETFMFPCQHCERKFATKQGLERHMHIHISTINHAFKCKYCGKRFGTQINRRRHERRHETGLKRRPSMTLQSSEDPDDGKGENVTSKDESSPPQLGQDCLILNSEKTSQEVLNSSFVEENGEVKELHPCKYCKKVFGTHTNMRRHQRRVHERHLIPKGVRRKGGLLEEPQPPAEQAPPSQNVYVPSTEPEEEGETDDVYIMDISSNISENLNYYIDGKIQTNSS
modifications: left off: a dimerising Fc or GST
With B1 as the molecule, how does the “inhibition of anti-RIZ antiserum binding to RIZ (245-883)” value (RIZ) read?
Its value is “inhibited”.

What about the “binding to B3 mutant of Rb” value (B3 mutant of Rb) of the same molecule?
The value was “showed binding”.
